From the Human Domainome abundance scans (Beltran et al. 2025)

B1: POU domain, class 3, transcription factor 2, residues 356 to 411; numbered along this chain, P20265 (parent)
chain: KKRTSIEVSVKGALESHFLKCPKPSAQEITSLADSLQLEKEVVRVWFCNRRQKEKR

Variants of: B1
Test: abundance fitness (aPCA) (normalised: wild type 0, dead -1); higher = more abundant; growth selection in yeast, the domain comes from the species named
Conditions: Homo sapiens

Abundance fitness, by site and new letter:
E54: D -0.185 | L -0.313 | G -0.454 | S -0.538 | A -0.255 | P -0.861 | F -0.764 | H -0.417 | N -0.407 | M -0.407 | K -0.495 | Q -0.177 | R -0.472 | C -0.284 | I -0.665
F47: C -0.937 | V -0.784 | K -0.961 | M -0.43 | L -0.722 | I -0.751 | D -0.852 | S -0.871 | P -0.941 | A -0.92 | E -0.672 | Y -0.328 | G -0.698 | Q -1 | N -0.967
C48: D -0.053 | Q 0.141 | A -0.096 | R -0.217 | V -0.015 | F 0.078 | H -0.118 | P -0.948 | E 0.149 | T -0.105 | K 0.101 | N -0.165 | M -0.052 | L -0.059 | Y 0.096 | I -0.004 | W -0.007
K53: C 0.025 | Y -0.545 | T 0.024 | M 0.11 | G -0.112 | D -0.234 | L -0.18 | V -0.517 | H -0.204 | R -0.457 | A -0.602
V45: N -0.006 | H 0.089 | K -0.057 | T 0.001 | D 0.07 | C -0.294 | M -0.101 | Y -0.152 | F -0.175 | Q 0.061 | I 0.01 | L -0.033 | R -0.293 | G -0.048 | P -0.784 | S 0.097 | W -0.038
R44: W -0.412 | S -0.09 | T -0.08 | Y -0.416 | V -0.38 | Q -0.057 | N -0.152 | P -0.814
R50: D -0.849 | Q -0.161 | F -1.05 | H -0.583 | N -0.907 | S -0.659 | W -0.924 | E -0.398 | P -0.982 | C -0.868 | M -0.545 | A -0.35 | G -0.735 | V -1
Q52: K -0.001 | D 0.015 | S -0.135 | L -0.125 | E 0.222 | F -0.106 | N -0.007 | M -0.053 | R -0.104 | W -0.241 | T 0.039 | I -0.145 | G -0.076 | V -0.131 | A 0.039 | P -0.956 | H -0.002
R51: M -0.156 | T -0.447 | D -0.381 | C -0.442 | P -0.831 | H -0.098 | W -0.1 | N -0.402 | A -0.136 | E -0.154 | I -0.397 | F -0.354 | G -0.198 | L 0.061 | V -0.245 | S -0.323
W46: P -0.986 | S -0.698 | G -0.92 | Y -0.648 | M -0.922 | D -0.318 | H -0.927 | A -0.932 | Q -0.78 | E -0.946 | F -0.393 | K -0.845 | L -0.934 | I -0.932 | T -0.958 | V -0.933 | N -0.896 | C -0.826 | R -0.805
N49: Q -0.005 | E 0.066 | H -0.08 | R -0.135 | W -0.18 | G -0.25 | T -0.207 | S -0.137 | K -0.056 | D 0.221 | C -0.14 | A -0.239 | M -0.197 | V -0.103 | I -0.249 | F -0.515 | Y -0.396 | L -0.149
